Source: PMC12618663

What was measured:
[1] = target: TMexC1 adapter prepared alone, C-terminal 6x His tag (Klebsiella pneumoniae); experiment: SEC
[2] = target: TMexC1 adapter, Strep-tagged, from the single plasmid pBAD24::tmexCD1-toprJ1 (Klebsiella pneumoniae); experiment: cryo-EM structure
[3] = target: TMexD1 transporter, C-terminal 6x His tag (pET28::tmexD1) (Klebsiella pneumoniae); experiment: SEC
[4] = target: TMexD1 transporter, tag-free, from the single plasmid pBAD24::tmexCD1-toprJ1 (Klebsiella pneumoniae); experiment: cryo-EM structure
[5] = target: TOprJ1 outer-membrane channel prepared alone, C-terminal 6x His tag (pET28::toprJ1) (Klebsiella pneumoniae); experiment: SEC
[6] = target: TOprJ1 outer-membrane channel prepared alone, C-terminal 6x His tag (pET28::toprJ1) (Klebsiella pneumoniae); experiment: negative-stain electron microscopy
[7] = target: TOprJ1 outer-membrane channel, 6x His-tagged, from the single plasmid pBAD24::tmexCD1-toprJ1 (Klebsiella pneumoniae); experiment: cryo-EM structure

Substance: TMexC1 adapter prepared alone, C-terminal 6x His tag (natural protein)
- stoichiometry N [1]: 6

Substance: TMexC1 adapter, Strep-tagged, from the single plasmid pBAD24::tmexCD1-toprJ1 (natural protein)
- stoichiometry N [2]: 6

Substance: TMexD1 transporter, C-terminal 6x His tag (pET28::tmexD1) (natural protein)
- stoichiometry N [3]: 3

Substance: TMexD1 transporter, tag-free, from the single plasmid pBAD24::tmexCD1-toprJ1 (natural protein)
- stoichiometry N [4]: 3

Substance: TOprJ1 outer-membrane channel prepared alone, C-terminal 6x His tag (pET28::toprJ1) (natural protein)
- stoichiometry N [5]: 3
- stoichiometry N [6]: 3

Substance: TOprJ1 outer-membrane channel, 6x His-tagged, from the single plasmid pBAD24::tmexCD1-toprJ1 (natural protein)
- stoichiometry N [7]: 3
